T1: recombinant human GDF-15 (human, UniProt Q99988 195-308)
T1 sequence (looked up): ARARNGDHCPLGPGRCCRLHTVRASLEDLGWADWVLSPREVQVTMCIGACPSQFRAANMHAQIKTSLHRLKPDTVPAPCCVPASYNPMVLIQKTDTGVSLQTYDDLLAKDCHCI

T2: cynomolgus GDF-15 (cynomolgus monkey, UniProt G7PWZ3 193-308, limits assumed)
T2 construct: also called NHP GDF-15
T2 sequence (looked up): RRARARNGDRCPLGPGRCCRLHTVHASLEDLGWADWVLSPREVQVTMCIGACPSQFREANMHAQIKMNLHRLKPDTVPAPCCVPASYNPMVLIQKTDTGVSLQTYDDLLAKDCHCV

T3: rat GDF-15 (rat, UniProt Q9Z0J6 189-303)
T3 sequence (looked up): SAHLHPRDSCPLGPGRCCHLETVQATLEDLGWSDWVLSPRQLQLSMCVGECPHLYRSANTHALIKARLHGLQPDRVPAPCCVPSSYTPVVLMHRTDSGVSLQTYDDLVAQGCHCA

T4: mouse GDF-15 (mouse, UniProt Q9Z0J7 189-303)
T4 construct: also called murine GDF-15
T4 sequence (looked up): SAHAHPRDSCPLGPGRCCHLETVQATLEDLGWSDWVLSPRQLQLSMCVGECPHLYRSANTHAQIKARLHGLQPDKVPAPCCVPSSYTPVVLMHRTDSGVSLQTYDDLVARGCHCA


What was measured:
[1] = target: T1, recombinant human GDF-15; assay: cell-based or functional assay
[2] = target: human complement protein C1q (human, UniProt P02745 23-245; P02746 28-253; P02747 29-245); assay: ELISA, antibody incubated on coated human GDF-15, then 10 µg/ml human C1q, detection with HRP-conjugated anti-C1q antibody
Chain of human complement protein C1q (P02745 23-245 limits assumed, chain 1 of 3): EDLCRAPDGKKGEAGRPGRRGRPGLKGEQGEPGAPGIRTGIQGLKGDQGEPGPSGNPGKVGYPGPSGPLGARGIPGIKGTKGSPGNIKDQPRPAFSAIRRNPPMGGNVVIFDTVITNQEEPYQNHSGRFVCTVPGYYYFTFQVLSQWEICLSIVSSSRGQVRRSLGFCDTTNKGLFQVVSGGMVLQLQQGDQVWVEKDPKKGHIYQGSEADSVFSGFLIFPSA
Chain of human complement protein C1q (P02746 28-253 limits assumed, chain 2 of 3): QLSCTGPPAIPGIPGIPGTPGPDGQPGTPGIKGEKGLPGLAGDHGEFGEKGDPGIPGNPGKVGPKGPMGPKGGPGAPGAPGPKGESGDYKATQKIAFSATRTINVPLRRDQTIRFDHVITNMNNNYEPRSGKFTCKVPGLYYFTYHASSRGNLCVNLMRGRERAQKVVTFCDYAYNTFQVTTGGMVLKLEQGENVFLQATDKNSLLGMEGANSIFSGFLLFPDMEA
Chain of human complement protein C1q (P02747 29-245 limits assumed, chain 3 of 3): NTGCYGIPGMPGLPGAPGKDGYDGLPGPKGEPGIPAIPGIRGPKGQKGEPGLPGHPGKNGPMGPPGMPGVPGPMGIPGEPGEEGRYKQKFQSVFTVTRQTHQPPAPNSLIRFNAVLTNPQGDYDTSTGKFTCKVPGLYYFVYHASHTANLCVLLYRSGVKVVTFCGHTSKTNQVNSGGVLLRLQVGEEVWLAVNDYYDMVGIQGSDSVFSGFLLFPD
Experimental: Interaction of C1q protein and therapeutic antibody was determined in an ELISA-based approach with 10 μg/ml human C1q protein using a HRP-conjugated anti-C1q antibody for detection. Here, CTL-001 and the different isotype variants were incubated to prior coated human GDF-15 protein before C1q binding was obtained. Experiment was performed in triplicated and mean of absorption (A450 nm) was plotted against the antibody concentration.

[3] = target: T2, cynomolgus GDF-15; assay: KD from PK-PD model fitted to in vivo NHP data (not a direct binding assay); in vivo KD fitted by the NHP PK-PD model, not an in vitro binding assay
[4] = target: T1, recombinant human GDF-15; assay: SPR (Biacore T3000): CTL-002 on the flow cell (per paragraph 142 an anti-human IgG Fc antibody is immobilized on the CM5 chip), human GDF-15 injected at 247, 370, 556, 833 and 1250 pM, global fit; one representative measurement of three
Experimental: (§1) All experiments were performed in 10 mM HEPES buffer, pH 7.4, 150 mM NaCl, 3.4 mM EDTA and 0.05% Tween. anti-human IgG Fc specific antibody (Jackson, Order #109-005-008, Lot #111148) was covalently immobilized by EDC/NHS chemistry on Biacore CM5 Chips (GE Healthcare, Order #61144275, Lot #10236645). For kinetic characterization of the antigen-antibody interaction pulses of increasing GDF-15 concentrations (e.g. 156.3 pM, 312 pM, 625 pM, 1,250 pM) were injected at a flow rate of 30 μl/min. After each measurement cycle (8 min of association followed by 30 min of dissociation) the antibody-antigen complex was resolved by regeneration of the surface with 10 mM glycine-HCl at pH 2.0. […] For global fit analysis only, these antigen concentrations were taken into account, which allowed the analysis following the Langmuir 1:1 binding model or 1:1 binding with drifting baseline.

[5] = target: T1, recombinant human GDF-15; assay: SPR, Biacore T3000; CTL-002 on immobilized anti-human IgG Fc antibody, GDF-15 injected
Experimental: (§2) In addition, the affinity to cynomolgus rat and mouse GDF-15 was measured (see Table 2).
as §1

[6] = target: T2, cynomolgus GDF-15; assay: as above
Experimental: as §2, §1

[7] = target: T3, rat GDF-15; assay: as above
Experimental: as §2, §1

[8] = target: T4, mouse GDF-15; assay: as above
Experimental: as §2, §1

EC50, rescue of CD8+ T-cell adhesion (flow-adhesion assay) [1]	EC50, reversal of GDF-15 mediated inhibition of T cell adhesion (in vitro flow-adhesion assay, 50 ng/ml GDF-15) [1]	EC50 of CTL-002 in the flow-adhesion assay with T cells [1]	Kd [3]	Kd [4]	Kd [5]	Kd [6]	Kd [7]	Kd [8]	Binder	binding result [2]
~0.7 µg/mL	0.69 to 0.725 µg/mL	0.707 µg/mL	19 pM	33.8 pM	38.3 pM	108 pM	449 pM	9760 pM	CTL-002 (antibody, human IgG4 S228P, kappa, Humanized, hinge-stabilized IgG4 (IgG4 S228P) derived from mouse antibody B1-23; also called CTL-001 IgG4*; CTL-001 IgG4) heavy: not shown light: DIVLTQSPSFLSASVGDRVTITCKASQNVGTNVAWFQQKPGKSPKALIYSASYRYSGVPDRFTGSGSGTEFTLTISSLQPEDFAAYFCQQYNNFPYTFGGGTKLEIKRTVAAPSVFIFPPSDEQLKSGTASVVCLLNNFYPREAKVQWKVDNALQSGNSQESVTEQDSKDSTYSLSSTLTLSKADYEKHKVYACEVTHQGLSSPVTKSFNRGEC	no binding (tested: about 25 µg/ml (leftmost visible marker))
–	–	–	–	–	–	–	–	–	CTL-001 (antibody, human IgG1, kappa, Humanized IgG1 with a kappa light chain; also called H1L5; B1-23-H1L5) heavy: not shown light: DIVLTQSPSFLSASVGDRVTITCKASQNVGTNVAWFQQKPGKSPKALIYSASYRYSGVPDRFTGSGSGTEFTLTISSLQPEDFAAYFCQQYNNFPYTFGGGTKLEIKRTVAAPSVFIFPPSDEQLKSGTASVVCLLNNFYPREAKVQWKVDNALQSGNSQESVTEQDSKDSTYSLSSTLTLSKADYEKHKVYACEVTHQGLSSPVTKSFNRGEC	no binding (tested: about 25 µg/ml (leftmost visible marker))
